The values below come from US20220025010A1 (ANTAG THERAPEUTICS, published 2022).

The test has as its target T1, human GIP receptor (human, UniProt P48546 22-466).
T1 sequence (looked up): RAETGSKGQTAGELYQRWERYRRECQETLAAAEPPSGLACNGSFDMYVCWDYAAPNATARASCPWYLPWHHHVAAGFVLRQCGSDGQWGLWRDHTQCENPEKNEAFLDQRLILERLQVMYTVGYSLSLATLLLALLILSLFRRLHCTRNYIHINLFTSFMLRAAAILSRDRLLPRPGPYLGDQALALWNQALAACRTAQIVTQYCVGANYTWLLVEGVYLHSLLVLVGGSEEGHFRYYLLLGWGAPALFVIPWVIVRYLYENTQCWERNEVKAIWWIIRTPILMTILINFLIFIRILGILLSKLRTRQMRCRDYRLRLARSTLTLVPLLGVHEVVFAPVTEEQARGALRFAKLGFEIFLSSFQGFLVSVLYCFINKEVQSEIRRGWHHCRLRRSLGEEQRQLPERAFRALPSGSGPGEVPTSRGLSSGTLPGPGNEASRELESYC
The experiment in a line: cell-based or functional assay.

*1 amine or outer side, *2 acyl side, *3 side chain or, on linkers, in order; H or OH if unused. Where no end group is shown, it is not given here. Side-chain parts run from the residue outwards. The star is where a group is joined. C16 diacid = O=C(O)CCCCCCCCCCCCCCC(=O)*; γGlu = O=C(O)[C@H](CCC(=O)[*:2])N[*:1]; AEEA = NCCOCCOCC(=O)O

B1: AT518 (peptide)
peptide: PGTFISDYSIAMDRIK([AEEA-AEEA-γGlu-C16 diacid])QQDFVNWLLAQR-NH2
modifications: N-terminus assumed
SMILES: CC[C@H](C)[C@H](NC(=O)[C@H](CO)NC(=O)[C@H](Cc1ccc(O)cc1)NC(=O)[C@H](CC(=O)O)NC(=O)[C@H](CO)NC(=O)[C@@H](NC(=O)[C@H](Cc1ccccc1)NC(=O)[C@@H](NC(=O)CNC(=O)[C@@H]1CCCN1)[C@@H](C)O)[C@@H](C)CC)C(=O)N[C@@H](C)C(=O)N[C@@H](CCSC)C(=O)N[C@@H](CC(=O)O)C(=O)N[C@@H](CCCNC(=N)N)C(=O)N[C@H](C(=O)N[C@@H](CCCCNC(=O)COCCOCCNC(=O)COCCOCCNC(=O)CC[C@H](NC(=O)CCCCCCCCCCCCCCC(=O)O)C(=O)O)C(=O)N[C@@H](CCC(N)=O)C(=O)N[C@@H](CCC(N)=O)C(=O)N[C@@H](CC(=O)O)C(=O)N[C@@H](Cc1ccccc1)C(=O)N[C@H](C(=O)N[C@@H](CC(N)=O)C(=O)N[C@@H](Cc1c[nH]c2ccccc12)C(=O)N[C@@H](CC(C)C)C(=O)N[C@@H](CC(C)C)C(=O)N[C@@H](C)C(=O)N[C@@H](CCC(N)=O)C(=O)N[C@@H](CCCNC(=N)N)C(N)=O)C(C)C)[C@@H](C)CC
B1: the “CisBio cAMP agonism % Efficacy” value is 0%, the “CisBio cAMP antagonism % inhib” value stood at 71%, the “CisBio cAMP antagonism IC50” value was 85.8 nM and the “CisBio cAMP antagonism pIC50” value was determined as 7.1. Also, the “DiscoveRx cAMP agonism Emax” value amounted to 5, the “DiscoveRx cAMP antagonism % inhib” value came to 100%, the “DiscoveRx cAMP antagonism IC50” value worked out at 346 nM and the “DiscoveRx cAMP antagonism log IC50” value is -6.5 log M.

B2: AT265 (peptide)
peptide: SGTFISDYSIAMDRIKQQDFVNWLLAQR
HELM: PEPTIDE1{S.G.T.F.I.S.D.Y.S.I.A.M.D.R.I.K.Q.Q.D.F.V.N.W.L.L.A.Q.R}|PEPTIDE2{[O=C(O)CCCCCCCCCCCCCCC(=O)[*:2]].[gGlu]}$PEPTIDE1,PEPTIDE2,16:R3-2:R2$$$V2.0; N-terminus assumed
SMILES: CC[C@H](C)[C@H](NC(=O)[C@H](CO)NC(=O)[C@H](Cc1ccc(O)cc1)NC(=O)[C@H](CC(=O)O)NC(=O)[C@H](CO)NC(=O)[C@@H](NC(=O)[C@H](Cc1ccccc1)NC(=O)[C@@H](NC(=O)CNC(=O)[C@@H](N)CO)[C@@H](C)O)[C@@H](C)CC)C(=O)N[C@@H](C)C(=O)N[C@@H](CCSC)C(=O)N[C@@H](CC(=O)O)C(=O)N[C@@H](CCCNC(=N)N)C(=O)N[C@H](C(=O)N[C@@H](CCCCNC(=O)CC[C@H](NC(=O)CCCCCCCCCCCCCCC(=O)O)C(=O)O)C(=O)N[C@@H](CCC(N)=O)C(=O)N[C@@H](CCC(N)=O)C(=O)N[C@@H](CC(=O)O)C(=O)N[C@@H](Cc1ccccc1)C(=O)N[C@H](C(=O)N[C@@H](CC(N)=O)C(=O)N[C@@H](Cc1c[nH]c2ccccc12)C(=O)N[C@@H](CC(C)C)C(=O)N[C@@H](CC(C)C)C(=O)N[C@@H](C)C(=O)N[C@@H](CCC(N)=O)C(=O)N[C@@H](CCCNC(=N)N)C(=O)O)C(C)C)[C@@H](C)CC
Turning to B2, the “CisBio cAMP agonism % Efficacy” value was 8%, the “CisBio cAMP antagonism % inhib” value stood at 73%, the “CisBio cAMP antagonism IC50” value amounted to 58.4 nM and the “CisBio cAMP antagonism pIC50” value is 7.2. Also, the “DiscoveRx cAMP agonism Emax” value was 10, the “DiscoveRx cAMP antagonism IC50” value came to 33 nM and the “DiscoveRx cAMP antagonism log IC50” value was -7.5 log M.

B3: AT514 (peptide)
peptide: GGTFISDYSIAMDRIK([AEEA-AEEA-γGlu-C16 diacid])QQDFVNWLLAQR-NH2
modifications: N-terminus assumed
SMILES: CC[C@H](C)[C@H](NC(=O)[C@H](CO)NC(=O)[C@H](Cc1ccc(O)cc1)NC(=O)[C@H](CC(=O)O)NC(=O)[C@H](CO)NC(=O)[C@@H](NC(=O)[C@H](Cc1ccccc1)NC(=O)[C@@H](NC(=O)CNC(=O)CN)[C@@H](C)O)[C@@H](C)CC)C(=O)N[C@@H](C)C(=O)N[C@@H](CCSC)C(=O)N[C@@H](CC(=O)O)C(=O)N[C@@H](CCCNC(=N)N)C(=O)N[C@H](C(=O)N[C@@H](CCCCNC(=O)COCCOCCNC(=O)COCCOCCNC(=O)CC[C@H](NC(=O)CCCCCCCCCCCCCCC(=O)O)C(=O)O)C(=O)N[C@@H](CCC(N)=O)C(=O)N[C@@H](CCC(N)=O)C(=O)N[C@@H](CC(=O)O)C(=O)N[C@@H](Cc1ccccc1)C(=O)N[C@H](C(=O)N[C@@H](CC(N)=O)C(=O)N[C@@H](Cc1c[nH]c2ccccc12)C(=O)N[C@@H](CC(C)C)C(=O)N[C@@H](CC(C)C)C(=O)N[C@@H](C)C(=O)N[C@@H](CCC(N)=O)C(=O)N[C@@H](CCCNC(=N)N)C(N)=O)C(C)C)[C@@H](C)CC
On to B3, for which the “CisBio cAMP agonism % Efficacy” value is 0%, the “CisBio cAMP antagonism % inhib” value worked out at 86%, the “CisBio cAMP antagonism IC50” value worked out at 31.6 nM and the “CisBio cAMP antagonism pIC50” value came to 7.5. In addition, the “DiscoveRx cAMP antagonism % inhib” value turned out to be 80%, the “DiscoveRx cAMP antagonism IC50” value is 39 nM and the “DiscoveRx cAMP antagonism log IC50” value is -7.4 log M.

EGTFISDYSIAMDRIK([AEEA-γGlu-C16 diacid])QQDFVNWLLAQR-NH2 (not fully specified (residue 1)) [AT373]: the “CisBio cAMP agonism % Efficacy” value worked out at 0%, the “CisBio cAMP antagonism % inhib” value is 91%, the “CisBio cAMP antagonism IC50” value turned out to be 12.6 nM and the “CisBio cAMP antagonism pIC50” value was 7.9. Also, the “DiscoveRx cAMP antagonism % inhib” value was determined as 94%, the “DiscoveRx cAMP antagonism IC50” value is 10 nM and the “DiscoveRx cAMP antagonism log IC50” value is -8 log M.

B4: AT516 (peptide)
peptide: SGTFISDYSIAMDRIK([AEEA-AEEA-γGlu-C16 diacid])QQDFVNWLLAQR-NH2
modifications: N-terminus assumed
SMILES: CC[C@H](C)[C@H](NC(=O)[C@H](CO)NC(=O)[C@H](Cc1ccc(O)cc1)NC(=O)[C@H](CC(=O)O)NC(=O)[C@H](CO)NC(=O)[C@@H](NC(=O)[C@H](Cc1ccccc1)NC(=O)[C@@H](NC(=O)CNC(=O)[C@@H](N)CO)[C@@H](C)O)[C@@H](C)CC)C(=O)N[C@@H](C)C(=O)N[C@@H](CCSC)C(=O)N[C@@H](CC(=O)O)C(=O)N[C@@H](CCCNC(=N)N)C(=O)N[C@H](C(=O)N[C@@H](CCCCNC(=O)COCCOCCNC(=O)COCCOCCNC(=O)CC[C@H](NC(=O)CCCCCCCCCCCCCCC(=O)O)C(=O)O)C(=O)N[C@@H](CCC(N)=O)C(=O)N[C@@H](CCC(N)=O)C(=O)N[C@@H](CC(=O)O)C(=O)N[C@@H](Cc1ccccc1)C(=O)N[C@H](C(=O)N[C@@H](CC(N)=O)C(=O)N[C@@H](Cc1c[nH]c2ccccc12)C(=O)N[C@@H](CC(C)C)C(=O)N[C@@H](CC(C)C)C(=O)N[C@@H](C)C(=O)N[C@@H](CCC(N)=O)C(=O)N[C@@H](CCCNC(=N)N)C(N)=O)C(C)C)[C@@H](C)CC
Turning to B4, the “CisBio cAMP agonism % Efficacy” value was 0%, the “CisBio cAMP antagonism % inhib” value turned out to be 88%, the “CisBio cAMP antagonism IC50” value turned out to be 27.1 nM and the “CisBio cAMP antagonism pIC50” value amounted to 7.6. The “DiscoveRx cAMP antagonism % inhib” value worked out at 100%, the “DiscoveRx cAMP antagonism IC50” value worked out at 31 nM and the “DiscoveRx cAMP antagonism log IC50” value was -7.5 log M.
